No end group written: not given here. *: point of attachment. Biotin = O=C1N[C@H]2[C@H](CS[C@H]2CCCCC(=O)*)N1
Columns and labels:
asyn_113-127_117A [1] = biological target: T1, asyn_113-127_117A (human); assay: Ala-scan peptide ELISA, row H, run 1
T1 construct: substitution is already in the entry; also called pep6
T1 peptide: Biotin-LEDMAVDPDNEAYEM
Description: (§1) 96-well Nunc plates were coated with 50 μL per well of 1 μg/mL streptavidin (from Jackson Immuno Research Laboratory) in PBS at 4° C. overnight. The plates were washed three times with PBST, and blocked with PBS containing 3% BSA at room temperature for 1 hour. The N-terminal biotinylated peptides were dissolved in Milli Q water to a concentration of 2 mg/mL, then further diluted to a concentration of 2 μg/mL with PBS. 50 μl of the diluted peptide was applied to the streptavidin-coated plates and incubated at 4° C. overnight. 2 μg/mL of biotinylated human alpha-synuclein was used as the positive control. The plates were washed three times with PBST before use. Purified antibody was diluted by serial dilution methods, from 20 μg/mL to 1 ng/mL, and 50 μL of the antibody solution was added to the peptide-coated wells. The plates were incubated for 1 hour at room temperature, then washed three times with PBST. Secondary detection antibody (goat anti-rat HRP (obtained from Southern Biotech)) was added with 1:5,000 dilutions and incubated for 1 hour at room temperature, then washed three times with PBST. Plates were developed with 50 μL/well of TMB substrate (Thermo Fisher) and quenched with 50 μL/well of 1 N sulfuric acid. The signal was quantified on a BioTek® plate reader at A450. A parallel repeat was performed for each peptide in a separate plate.

asyn_113-127_115A [2] = biological target: T2, asyn_113-127_115A (human); assay: Ala-scan peptide ELISA, row H, run 1
T2 construct: substitution is already in the entry; also called pep4
T2 peptide: Biotin-LEAMPVDPDNEAYEM
Description: as §1

asyn_113-127_121A [3] = biological target: T3, asyn_113-127_121A (human); assay: Ala-scan peptide ELISA, row H, run 1
T3 construct: substitution is already in the entry; also called pep10
T3 peptide: Biotin-LEDMPVDPANEAYEM
Description: as §1

asyn_113-127_120A [4] = biological target: T4, asyn_113-127_120A (human); assay: Ala-scan peptide ELISA, row H, run 1
T4 construct: substitution is already in the entry; also called pep9
T4 peptide: Biotin-LEDMPVDADNEAYEM
Description: as §1

asyn_113-127_125A [5] = biological target: T5, asyn_113-127_125A (human); assay: Ala-scan peptide ELISA, row H, run 1
T5 construct: substitution is already in the entry; also called pep15
T5 peptide: Biotin-LEDMPVDPDNEAAEM
Description: as §1

[6] = biological target: T6, biotinylated human alpha-synuclein (human, UniProt P37840 1-140); assay: Ala-scan peptide ELISA, row H, run 1
Description: as §1

asyn_113-127_118A [7] = biological target: T7, asyn_113-127_118A (human); assay: Ala-scan peptide ELISA, row H, run 1
T7 construct: substitution is already in the entry; also called pep7
T7 peptide: Biotin-LEDMPADPDNEAYEM
Description: as §1

asyn_113-127_124G [8] = biological target: T8, asyn_113-127_124G (human); assay: Ala-scan peptide ELISA, row H, run 1
T8 construct: substitution is already in the entry; also called pep13
T8 peptide: Biotin-LEDMPVDPDNEGYEM
Description: as §1

asyn_113-127 [9] = biological target: T9, asyn_113-127 (human); assay: Ala-scan peptide ELISA, row H, run 1
T9 construct: also called pep1
T9 peptide: Biotin-LEDMPVDPDNEAYEM
Description: as §1

asyn_113-127_124P [10] = biological target: T10, asyn_113-127_124P (human); assay: Ala-scan peptide ELISA, row H, run 1
T10 construct: substitution is already in the entry; also called pep14
T10 peptide: Biotin-LEDMPVDPDNEPYEM
Description: as §1

asyn_113-127_117A [11] = biological target: T1, asyn_113-127_117A; assay: Ala-scan peptide ELISA, row A, run 2; further: test concentration or dose not given here
asyn_113-127_115A [12] = biological target: T2, asyn_113-127_115A; assay: Ala-scan peptide ELISA, row A, run 2; further: test concentration or dose not given here
asyn_113-127_121A [13] = biological target: T3, asyn_113-127_121A; assay: Ala-scan peptide ELISA, row A, run 2; further: test concentration or dose not given here
asyn_113-127_122A = biological target: T11, asyn_113-127_122A (human); assay: Ala-scan peptide ELISA, row A, run 2; further: test concentration or dose not given here
T11 construct: substitution is already in the entry; also called pep11
T11 peptide: Biotin-LEDMPVDPDAEAYEM

asyn_113-127_114A = biological target: T12, asyn_113-127_114A (human); assay: Ala-scan peptide ELISA, row A, run 2; further: test concentration or dose not given here
T12 construct: substitution is already in the entry; also called pep3
T12 peptide: Biotin-LADMPVDPDNEAYEM

asyn_113-127_120A [14] = biological target: T4, asyn_113-127_120A; assay: Ala-scan peptide ELISA, row A, run 2; further: test concentration or dose not given here
asyn_113-127_113A = biological target: T13, asyn_113-127_113A (human); assay: Ala-scan peptide ELISA, row A, run 2
T13 construct: substitution is already in the entry; also called pep2
T13 peptide: Biotin-AEDMPVDPDNEAYEM
Description: as §1

asyn_113-127_125A [15] = biological target: T5, asyn_113-127_125A; assay: Ala-scan peptide ELISA, row A, run 2
Description: as §1

asyn_113-127_126A = biological target: T14, asyn_113-127_126A (human); assay: Ala-scan peptide ELISA, row A, run 2
T14 construct: substitution is already in the entry; also called pep16
T14 peptide: Biotin-LEDMPVDPDNEAYAM
Description: as §1

[16] = biological target: T6, biotinylated human alpha-synuclein; assay: Ala-scan peptide ELISA, row A, run 2
Description: as §1

asyn_113-127_116A = biological target: T15, asyn_113-127_116A (human); assay: Ala-scan peptide ELISA, row A, run 2
T15 construct: substitution is already in the entry; also called pep5
T15 peptide: Biotin-LEDAPVDPDNEAYEM
Description: as §1

asyn_113-127_118A [17] = biological target: T7, asyn_113-127_118A; assay: Ala-scan peptide ELISA, row A, run 2
Description: as §1

asyn_113-127_124G [18] = biological target: T8, asyn_113-127_124G; assay: Ala-scan peptide ELISA, row A, run 2
Description: as §1

asyn_113-127_123A = biological target: T16, asyn_113-127_123A (human); assay: Ala-scan peptide ELISA, row A, run 2
T16 construct: substitution is already in the entry; also called pep12
T16 peptide: Biotin-LEDMPVDPDNAAYEM
Description: as §1

asyn_113-127_127A = biological target: T17, asyn_113-127_127A (human); assay: Ala-scan peptide ELISA, row A, run 2
T17 construct: substitution is already in the entry; also called pep17
T17 peptide: Biotin-LEDMPVDPDNEAYEA
Description: as §1

asyn_113-127 [19] = biological target: T9, asyn_113-127; assay: Ala-scan peptide ELISA, row A, run 2
Description: as §1

asyn_113-127_124P [20] = biological target: T10, asyn_113-127_124P; assay: Ala-scan peptide ELISA, row A, run 2
Description: as §1

asyn_113-127_119A = biological target: T18, asyn_113-127_119A (human); assay: Ala-scan peptide ELISA, row A, run 2
T18 construct: substitution is already in the entry; also called pep8
T18 peptide: Biotin-LEDMPVAPDNEAYEM
Description: as §1

B1: 20H4 (antibody, rat IgG2b, V domains shown)
VH: AVQLVESGGGLVQPKESLKISCAASGFTFSNAAMYWVRQAPGKGLELLARIRTKPNNYATYHADSVKGRFTISRDDSQSMVYLHMGNLKTEDTAMYYCTADMATGDYWGPGVMVTVSS
VL: DIQMTQSPPVLSVSVGDRVTLSCKASQNINKNLDWYQQKHGEAPKPLIYSTNNLQTGVPSRFSGSGSGTDYTLTISSLQPEDVATYYCYQYKSAWTFGGGTKLELR
notes: also called clone 20H4; rat 20H4
A450 (asyn_113-127_117A [1]): 0.071 OD | A450 (asyn_113-127_115A [2]): 0.051 OD | A450 (asyn_113-127_121A [3]): 0.068 OD | A450 (asyn_113-127_120A [4]): 0.063 OD | A450 (asyn_113-127_125A [5]): 0.047 OD | A450 [6]: 0.086 OD | A450 (asyn_113-127_118A [7]): 0.069 OD | A450 (asyn_113-127_124G [8]): 0.065 OD | A450 (asyn_113-127 [9]): 0.063 OD | A450 (asyn_113-127_124P [10]): 0.049 OD | A450 (asyn_113-127_117A [11]): 0.462 OD | A450 (asyn_113-127_115A [12]): 0.405 OD | A450 (asyn_113-127_121A [13]): 0.391 OD | A450 (asyn_113-127_122A): 0.08 OD | A450 (asyn_113-127_114A): 0.401 OD | A450 (asyn_113-127_120A [14]): 0.314 OD | A450 (asyn_113-127_113A): 0.44 OD | A450 (asyn_113-127_125A [15]): 0.078 OD | A450 (asyn_113-127_126A): 0.469 OD | A450 [16]: 0.907 OD | A450 (asyn_113-127_116A): 0.418 OD | A450 (asyn_113-127_118A [17]): 0.441 OD | A450 (asyn_113-127_124G [18]): 0.396 OD | A450 (asyn_113-127_123A): 0.441 OD | A450 (asyn_113-127_127A): 0.504 OD | A450 (asyn_113-127 [19]): 0.374 OD | A450 (asyn_113-127_124P [20]): 0.069 OD | A450 (asyn_113-127_119A): 0.06 OD

Source: patent US20230074436A1 (DENALI THERAPEUTICS, published 2023)
